Test results taken from patent US20150045310A1.
Where no end group is shown, it is not given here. eCPX = enhanced circularly permuted OmpX display scaffold; linker = not defined here

B1: Bim BH3 14-mer variant M2-4 displayed on eCPX (peptide, not shown: large carriers; small tags and cut ends)
peptide: WLAQLLRRIGDEIN-{linker-eCPX}
modifications: reading uncertain; also: printed as Trp-Leu-Ala-Gln-Leu-Leu-Arg-Arg-Ile-Gly-Asp-Glu-Ile-Asn
B2: Bim BH3 14-mer variant M2-2 displayed on eCPX (peptide, not shown: large carriers; small tags and cut ends)
peptide: WVAQLLRRIGDEVN-{linker-eCPX}
modifications: reading uncertain; also: printed as Trp-Val-Ala-Gln-Leu-Leu-Arg-Arg-Ile-Gly-Asp-Glu-Val-Asn
B3: Bim BH3 14-mer variant X2-3 displayed on eCPX (peptide, not shown: large carriers; small tags and cut ends)
peptide: WVAQWLRRWGDEFN
modifications: also: displayed as fusion to eCPX scaffold (letters not given here)
B4: Bim BH3 14-mer variant X2-8 displayed on eCPX (peptide, not shown: large carriers; small tags and cut ends)
peptide: WLAQLLRRYGDEFN
modifications: also: displayed as fusion to eCPX scaffold (letters not given here)
B5: wild-type Bim BH3 14-mer peptide (residues 147-160) displayed on eCPX (peptide, not shown: large carriers; small tags and cut ends)
peptide: WIAQELRRIGDEFN-{linker-eCPX}
modifications: reading uncertain
B6: Bim BH3 14-mer E151Q (pseudo-wild-type) displayed on eCPX (peptide, not shown: large carriers; small tags and cut ends)
peptide: WIAQQLRRIGDEFN
modifications: not fully specified

Biological target: A1 (biotinylated pro-survival Bcl-2 family protein) (UniProt Q16548)
Assay: apparent Kd, bacterial surface display and flow cytometry

Question: How did the fold affinity improvement against wild-type Bim 14-mer turn out when B1 was run?
Answer: The fold affinity improvement against wild-type Bim 14-mer was 6 fold.

Question: For B2, which fold affinity improvement against wild-type Bim 14-mer is on record?
Answer: Its fold affinity improvement against wild-type Bim 14-mer is 3 fold.

Biological target: A1 (biotinylated pro-survival Bcl-2 family protein) (UniProt Q16548)
Assay: flow cytometry of E. coli displaying the peptide on eCPX, biotinylated target + streptavidin-PE; apparent Kd

Question: With B3 as the binder, how does the Kd read?
Answer: Its Kd is 30.2 nM.

Question: Which Kd does the source give for B4 here?
Answer: Its Kd is 40.5 nM.

Question: With B1 as the binder, how does the Kd read?
Answer: The Kd was 4.18 nM.

Question: For B5, which Kd is on record?
Answer: Its Kd is 26.9 nM.

Question: Which Kd does the source give for B2 here?
Answer: The Kd was 9.99 nM.

Question: With B6 as the binder, how does the Kd read?
Answer: The Kd was 29.6 nM.
